Test results published in IntAct's records for PubMed 21763699.

B1: Peripheral plasma membrane protein CASK (Homo sapiens), O14936 (parent)
chain: MADDDVLFEDVYELCEVIGKGPFSVVRRCINRETGQQFAVKIVDVAKFTSSPGLSTEDLKREASICHMLKHPHIVELLETYSSDGMLYMVFEFMDGADLCFEIVKRADAGFVYSEAVASHYMRQILEALRYCHDNNIIHRDVKPHCVLLASKENSAPVKLGGFGVAIQLGESGLVAGGRVGTPHFMAPEVVKREPYGKPVDVWGCGVILFILLSGCLPFYGTKERLFEGIIKGKYKMNPRQWSHISESAKDLVRRMLMLDPAERITVYEALNHPWLKERDRYAYKIHLPETVEQLRKFNARRKLKGAVLAAVSSHKFNSFYGDPPEELPDFSEDPTSSGLLAAERAVSQVLDSLEEIHALTDCSEKDLDFLHSVFQDQHLHTLLDLYDKINTKSSPQIRNPPSDAVQRAKEVLEEISCYPENNDAKELKRILTQPHFMALLQTHDVVAHEVYSDEALRVTPPPTSPYLNGDSPESANGDMDMENVTRVRLVQFQKNTDEPMGITLKMNELNHCIVARIMHGGMIHRQGTLHVGDEIREINGISVANQTVEQLQKMLREMRGSITFKIVPSYRTQSSSCERDSPSTSRQSPANGHSSTNNSVSDLPSTTQPKGRQIYVRAQFEYDPAKDDLIPCKEAGIRFRVGDIIQIISKDDHNWWQGKLENSKNGTAGLIPSPELQEWRVACIAMEKTKQEQQASCTWFGKKKKQYKDKYLAKHNAVFDQLDLVTYEEVVKLPAFKRKTLVLLGAHGVGRRHIKNTLITKHPDRFAYPIPHTTRPPKKDEENGKNYYFVSHDQMMQDISNNEYLEYGSHEDAMYGTKLETIRKIHEQGLIAILDVEPQALKVLRTAEFAPFVVFIAAPTITPGLNEDESLQRLQKESDILQRTYAHYFDLTIINNEIDETIRHLEEAVELVCTAPQWVPVSWVY
partner: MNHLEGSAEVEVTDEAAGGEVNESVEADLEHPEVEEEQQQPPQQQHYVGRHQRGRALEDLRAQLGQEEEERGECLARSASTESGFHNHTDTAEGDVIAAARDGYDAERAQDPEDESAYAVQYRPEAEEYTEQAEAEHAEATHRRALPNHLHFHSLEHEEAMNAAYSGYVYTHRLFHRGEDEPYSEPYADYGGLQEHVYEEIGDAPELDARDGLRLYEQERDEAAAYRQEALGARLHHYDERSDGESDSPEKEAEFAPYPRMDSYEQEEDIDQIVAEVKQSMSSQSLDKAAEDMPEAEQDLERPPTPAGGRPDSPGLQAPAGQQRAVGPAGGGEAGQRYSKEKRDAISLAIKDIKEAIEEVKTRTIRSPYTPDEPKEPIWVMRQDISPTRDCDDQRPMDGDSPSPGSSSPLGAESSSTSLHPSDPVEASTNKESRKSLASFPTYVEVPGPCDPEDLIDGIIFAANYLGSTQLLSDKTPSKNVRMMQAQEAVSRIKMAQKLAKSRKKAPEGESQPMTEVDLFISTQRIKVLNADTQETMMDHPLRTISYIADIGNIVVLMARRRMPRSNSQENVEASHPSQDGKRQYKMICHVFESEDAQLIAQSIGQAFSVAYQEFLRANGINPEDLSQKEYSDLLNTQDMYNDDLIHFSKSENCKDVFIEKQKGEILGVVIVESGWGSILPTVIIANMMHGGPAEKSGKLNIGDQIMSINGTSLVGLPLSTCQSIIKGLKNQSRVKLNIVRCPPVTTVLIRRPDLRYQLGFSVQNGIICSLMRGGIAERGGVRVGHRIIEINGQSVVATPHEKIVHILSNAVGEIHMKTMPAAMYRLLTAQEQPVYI
B2: Peripheral plasma membrane protein CASK (Homo sapiens), O14936 (parent)
chain: B1 chain
B3: Caskin-1 (Homo sapiens), Q8WXD9 (parent)
chain: MGKEQELVQAVKAEDVGTAQRLLQRPRPGKAKLLGSTKKINVNFQDPDGFSALHHAALNGNTELISLLLEAQAAVDIKDNKGMRPLHYAAWQGRKEPMKLVLKAGSAVNIPSDEGHIPLHLAAQHGHYDVSEMLLQHQSNPCMVDNSGKTPLDLACEFGRVGVVQLLLSSNMCAALLEPRPGDATDPNGTSPLHLAAKNGHIDIIRLLLQAGIDINRQTKSGTALHEAALCGKTEVVRLLLDSGINAHVRNTYSQTALDIVHQFTTSQASREIKQLLREASAALQVRATKDYCNNYDLTSLNVKAGDIITVLEQHPDGRWKGCIHDNRTGNDRVGYFPSSLGEAIVKRAGSRAGTEPSLPQGSSSSGPSAPPEEIWVLRKPFAGGDRSGSISGMAGGRGSGGHALHAGSEGVKLLATVLSQKSVSESGPGDSPAKPPEGSAGVARSQPPVAHAGQVYGEQPPKKLEPASEGKSSEAVSQWLTAFQLQLYAPNFISAGYDLPTISRMTPEDLTAIGVTKPGHRKKIAAEISGLSIPDWLPEHKPANLAVWLSMIGLAQYYKVLVDNGYENIDFITDITWEDLQEIGITKLGHQKKLMLAVRKLAELQKAEYAKYEGGPLRRKAPQSLEVMAIESPPPPEPTPADCQSPKMTTFQDSELSDELQAAMTGPAEVGPTTEKPSSHLPPTPRATTRQDSSLGGRARHMSSSQELLGDGPPGPSSPMSRSQEYLLDEGPAPGTPPREARPGRHGHSIKRASVPPVPGKPRQVLPPGTSHFTPPQTPTKTRPGSPQALGGPHGPAPATAKVKPTPQLLPPTERPMSPRSLPQSPTHRGFAYVLPQPVEGEVGPAAPGPAPPPVPTAVPTLCLPPEADAEPGRPKKRAHSLNRYAASDSEPERDELLVPAAAGPYATVQRRVGRSHSVRAPAGADKNVNRSQSFAVRPRKKGPPPPPPKRSSSALASANLADEPVPDAEPEDGLLGVRAQCRRASDLAGSVDTGSAGSVKSIAAMLELSSIGGGGRAARRPPEGHPTPRPASPEPGRVATVLASVKHKEAIGPGGEVVNRRRTLSGPVTGLLATARRGPGESADPGPFVEDGTGRQRPRGPSKGEAGVEGPPLAKVEASATLKRRIRAKQNQQENVKFILTESDTVKRRPKAKEREAGPEPPPPLSVYHNGTGTVRRRPASEQAGPPELPPPPPPAEPPPTDLAHLPPLPPPEGEARKPAKPPVSPKPVLTQPVPKLQGSPTPTSKKVPLPGPGSPEVKRAHGTPPPVSPKPPPPPTAPKPVKAVAGLPSGSAGPSPAPSPARQPPAALAKPPGTPPSLGASPAKPPSPGAPALHVPAKPPRAAAAAAAAAAAPPAPPEGASPGDSARQKLEETSACLAAALQAVEEKIRQEDAQGPRDSAAEKSTGSILDDIGSMFDDLADQLDAMLE

Variants of: B1
Details: with apba1_human APBA1, Q02410

| effect of a mutation on the interaction | Variant |
| --- | --- |
| disrupting interaction | V117Q |
| disrupting interaction | V117D |

Variants of: B2
Details: with tiam1_human TIAM1, Q13009
tiam1_human TIAM1, Q13009, sequence (Q13009 whole entry): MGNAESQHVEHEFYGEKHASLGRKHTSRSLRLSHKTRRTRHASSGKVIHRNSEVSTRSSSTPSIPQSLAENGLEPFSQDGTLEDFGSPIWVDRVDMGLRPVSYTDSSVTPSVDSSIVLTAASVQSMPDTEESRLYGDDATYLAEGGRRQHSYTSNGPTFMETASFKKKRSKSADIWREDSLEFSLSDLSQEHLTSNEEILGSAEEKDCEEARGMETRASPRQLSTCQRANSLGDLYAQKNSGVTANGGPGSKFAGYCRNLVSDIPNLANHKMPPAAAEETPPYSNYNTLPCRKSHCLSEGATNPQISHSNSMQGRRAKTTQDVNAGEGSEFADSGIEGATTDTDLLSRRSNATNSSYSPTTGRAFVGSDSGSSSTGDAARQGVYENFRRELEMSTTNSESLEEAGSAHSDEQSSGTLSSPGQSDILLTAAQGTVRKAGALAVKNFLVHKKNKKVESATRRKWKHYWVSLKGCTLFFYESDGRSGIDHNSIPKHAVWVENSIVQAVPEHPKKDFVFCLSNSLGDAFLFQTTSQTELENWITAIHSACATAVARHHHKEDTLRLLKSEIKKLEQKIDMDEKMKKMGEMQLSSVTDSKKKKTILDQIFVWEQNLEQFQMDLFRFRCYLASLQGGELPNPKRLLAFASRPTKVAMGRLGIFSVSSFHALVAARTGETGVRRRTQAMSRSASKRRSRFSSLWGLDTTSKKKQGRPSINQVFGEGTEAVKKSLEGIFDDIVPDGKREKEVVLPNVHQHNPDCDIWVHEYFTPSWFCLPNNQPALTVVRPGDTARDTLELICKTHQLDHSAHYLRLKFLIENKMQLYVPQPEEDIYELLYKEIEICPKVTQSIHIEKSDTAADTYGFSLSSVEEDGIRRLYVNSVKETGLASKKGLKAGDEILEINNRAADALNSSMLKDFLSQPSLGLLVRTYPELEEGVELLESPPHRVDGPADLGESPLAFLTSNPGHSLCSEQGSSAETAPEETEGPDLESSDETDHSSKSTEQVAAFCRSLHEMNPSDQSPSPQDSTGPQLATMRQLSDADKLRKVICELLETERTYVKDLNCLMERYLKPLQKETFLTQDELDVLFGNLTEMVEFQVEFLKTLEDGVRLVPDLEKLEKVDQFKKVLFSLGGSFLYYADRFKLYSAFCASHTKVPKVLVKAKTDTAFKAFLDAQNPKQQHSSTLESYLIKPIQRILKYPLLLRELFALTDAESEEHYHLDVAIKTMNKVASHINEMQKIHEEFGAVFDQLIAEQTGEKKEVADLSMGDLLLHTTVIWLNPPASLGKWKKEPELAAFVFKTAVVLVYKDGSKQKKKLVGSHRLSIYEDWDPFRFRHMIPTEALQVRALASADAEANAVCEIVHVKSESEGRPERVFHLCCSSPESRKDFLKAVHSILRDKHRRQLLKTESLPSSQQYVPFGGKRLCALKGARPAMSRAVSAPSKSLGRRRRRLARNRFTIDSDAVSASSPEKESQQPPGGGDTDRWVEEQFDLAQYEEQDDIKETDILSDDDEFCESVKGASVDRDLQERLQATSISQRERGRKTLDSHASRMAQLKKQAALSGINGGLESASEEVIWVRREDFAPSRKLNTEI

| effect of a mutation on the interaction | Variant |
| --- | --- |
| disrupting interaction | V117D |
| disrupting interaction | V117Q |

Variants of: B2
Details: with cski1_human CASKIN1, Q8WXD9

| effect of a mutation on the interaction | Variant |
| --- | --- |
| disrupting interaction | V117D |
| disrupting interaction | V117Q |

Variants of: B3
Details: with cskp_human CASK, O14936

| Variant | effect of a mutation on the interaction |
| --- | --- |
| V377A | decreasing interaction |
| I375A | disrupting interaction |

Continued, values first:

| effect of a mutation on the interaction | Variant |
| --- | --- |
| decreasing interaction | R379A |
| disrupting interaction | W376A |

Variants of: B3
Details: with cskp_human CASK

| effect of a mutation on the interaction | Variant |
| --- | --- |
| disrupting interaction | L378A;R379A;K380A |
| disrupting interaction | I375A;W376A;V377A |
